To fix the notation:
B1: Pistol ribozyme (parent)
chain: GGGUCGUUGUUCCAUAAUCGCGUGGAUAUGGCACGCAAGUUUCUACCGGGCACCGUAAAUGUCCGACUGGAGCCGUUCGGGCGGCUAUAAACAGACCUCAGGCCCGAAGCGUGGCGGCACCUGCCGCCGGUGGUAAAAAAGAUCGGAAGAGCACACGUCU

The variants in the data set derive from B1. As to the kind of experiment: aptazyme ON/OFF ratio, guanine; higher = stronger switching; co-transcriptional cleavage with and without guanine.
U7C U10G U11A C12G: the “aptazyme ON/OFF ratio” value was determined as 1.15.

Turning to U7A C12A, the “aptazyme ON/OFF ratio” value stood at 1.54.

U7C G9U U10A U11G C12U C13U: the “aptazyme ON/OFF ratio” value came out at 1.18.

Consider U7G U8A G9C U10A U11C C12U C13A, for which the “aptazyme ON/OFF ratio” value turned out to be 1.03.

Consider U7A U8C G9A U10G U11C C12G C13G, for which the “aptazyme ON/OFF ratio” value worked out at 1.09.

As to U7G U8C G9U U10A U11C C12U, the “aptazyme ON/OFF ratio” value amounted to 1.72.

G9U C12G C13U: the “aptazyme ON/OFF ratio” value was 1.43.

As to U7A U8C G9U U11A C12A C13G, the “aptazyme ON/OFF ratio” value turned out to be 1.24.

On to U7C U8A U10G U11A C12G, for which the “aptazyme ON/OFF ratio” value came out at 1.33.

Turning to U7C U8C U11C C12G C13G, the “aptazyme ON/OFF ratio” value is 1.31.

For U8G U10G U11G C12U C13U, the “aptazyme ON/OFF ratio” value was 1.34.

Regarding U7C U8G U10C U11C C13A, the “aptazyme ON/OFF ratio” value is 1.03.

With U7C U8A G9A U10A U11C, the “aptazyme ON/OFF ratio” value was found to be 1.02.

As for U8C U11C C12G C13A, the “aptazyme ON/OFF ratio” value was 1.37.

Turning to U7A U8A G9U U10G C12G C13U, the “aptazyme ON/OFF ratio” value stood at 1.23.

As to U8C U10C U11A C12G C13G, the “aptazyme ON/OFF ratio” value is 1.24.

Regarding U7C U8C G9U U10C U11A C12G C13A, the “aptazyme ON/OFF ratio” value is 1.13.

Consider U7G U11A C13G, for which the “aptazyme ON/OFF ratio” value stood at 1.08.

Take U7A U8G U10A U11G C13U: the “aptazyme ON/OFF ratio” value worked out at 1.29.

Turning to U7G, the “aptazyme ON/OFF ratio” value worked out at 1.89.

Take U7G U8A U10A U11C C12G: the “aptazyme ON/OFF ratio” value came to 1.26.

U7A U8A G9C U10C U11G C12A C13A: the “aptazyme ON/OFF ratio” value is 0.981.

For the variant U8C U11G C13A, the “aptazyme ON/OFF ratio” value is 1.05.

With U7C U8C G9U U10C U11G C12A, the “aptazyme ON/OFF ratio” value was determined as 1.16.

With U7A G9U U10G U11C C12U C13A, the “aptazyme ON/OFF ratio” value is 1.29.

Regarding U8G G9C U11A C12U C13U, the “aptazyme ON/OFF ratio” value worked out at 1.1.

Regarding U7A G9C U10C U11G C12U C13G, the “aptazyme ON/OFF ratio” value is 1.04.

Consider U8A G9C U10G U11C C12U C13U, for which the “aptazyme ON/OFF ratio” value amounted to 1.16.

U8C G9U C12A C13U: the “aptazyme ON/OFF ratio” value turned out to be 1.19.

Regarding U7A U8G G9C U11A C13G, the “aptazyme ON/OFF ratio” value came to 1.15.

For U7C U8C U10C C13U, the “aptazyme ON/OFF ratio” value came to 2.08.

For U7C U8C U10C C13A, the “aptazyme ON/OFF ratio” value was 1.24.

U8C G9C U11G C13A: the “aptazyme ON/OFF ratio” value amounted to 1.09.

U8G G9U C13U: the “aptazyme ON/OFF ratio” value stood at 1.41.

U7C U10A U11G C12A C13U: the “aptazyme ON/OFF ratio” value worked out at 1.17.

Take U7A U8A G9U U10C C12A C13G: the “aptazyme ON/OFF ratio” value is 1.15.

U7G U8G G9U C12G C13G: the “aptazyme ON/OFF ratio” value worked out at 1.31.

U8C G9A U10G U11C C12U C13A: the “aptazyme ON/OFF ratio” value came to 1.2.

For U7C U8A U10G U11G C12U C13U, the “aptazyme ON/OFF ratio” value amounted to 1.44.

U8A U10G U11A C12G C13G: the “aptazyme ON/OFF ratio” value is 1.51.

In the case of U7G G9C U10A, the “aptazyme ON/OFF ratio” value was 3.1.

U7A U8A U11G C12A C13G: the “aptazyme ON/OFF ratio” value is 1.11.

For U7A U8A G9C U10G C12G C13A, the “aptazyme ON/OFF ratio” value amounted to 1.22.

With U7C G9C U10A U11A C12G C13G, the “aptazyme ON/OFF ratio” value is 1.12.

As for U8C G9A U11C C12A C13G, the “aptazyme ON/OFF ratio” value turned out to be 1.14.

For G9U U10G U11A C12A C13A, the “aptazyme ON/OFF ratio” value is 1.56.

Turning to U7G G9C U11C C13G, the “aptazyme ON/OFF ratio” value turned out to be 1.06.

Regarding U7C U8G U10A U11C C13G, the “aptazyme ON/OFF ratio” value turned out to be 1.03.

U7A U10G U11A C12G: the “aptazyme ON/OFF ratio” value turned out to be 1.24.

On to U7G U8A U10G U11G C12G C13U, for which the “aptazyme ON/OFF ratio” value came to 1.7.

For U7G U8G G9A U11A C12G C13G, the “aptazyme ON/OFF ratio” value was found to be 1.06.

With U7G U8G G9U U10G U11G C12G C13G, the “aptazyme ON/OFF ratio” value came out at 1.06.

Regarding U7A U8A G9U U10A C12G C13A, the “aptazyme ON/OFF ratio” value came out at 1.2.

Turning to U7C U8C G9A U10A U11C C12U, the “aptazyme ON/OFF ratio” value was determined as 1.2.

Consider U7G U8G G9A U11G C12G, for which the “aptazyme ON/OFF ratio” value came out at 1.39.

As to U7A U8G G9A U11A C12G C13U, the “aptazyme ON/OFF ratio” value came to 1.25.

Consider U8C G9U U10A U11G C12U, for which the “aptazyme ON/OFF ratio” value was 1.43.

Regarding U7A U8A G9C U11C, the “aptazyme ON/OFF ratio” value stood at 1.05.

U7A G9U U10C C12A: the “aptazyme ON/OFF ratio” value worked out at 1.14.

Turning to U7A U8G G9A U10A U11G C12A C13U, the “aptazyme ON/OFF ratio” value stood at 1.4.

For the variant U7G U8G G9C U10G U11G C12A C13U, the “aptazyme ON/OFF ratio” value was 1.09.

U7G U8A G9U U10A C13A: the “aptazyme ON/OFF ratio” value was found to be 1.06.

As to U7G U8A U11C C12A, the “aptazyme ON/OFF ratio” value is 1.29.

Turning to U7A U8A G9U U11A C12U C13U, the “aptazyme ON/OFF ratio” value was 1.28.

As to U8A U10A C12U C13U, the “aptazyme ON/OFF ratio” value turned out to be 1.25.

Regarding U7C U10A U11G C12U C13G, the “aptazyme ON/OFF ratio” value amounted to 1.2.

Turning to U7G U8C G9C U10C U11A C12U, the “aptazyme ON/OFF ratio” value was found to be 1.06.

As to U7C U8A G9A U11G C12A C13G, the “aptazyme ON/OFF ratio” value came out at 1.21.

On to U7G U8A G9U U10G U11A C12U, for which the “aptazyme ON/OFF ratio” value amounted to 1.04.

Consider U7A U8A G9U U10G U11G C13G, for which the “aptazyme ON/OFF ratio” value is 1.3.

Consider U7G U8G U11A C13A, for which the “aptazyme ON/OFF ratio” value came out at 1.5.

Take U8G G9C U10A U11A C12U: the “aptazyme ON/OFF ratio” value is 1.18.

U7G U8A U10C C12U C13A: the “aptazyme ON/OFF ratio” value stood at 1.24.

With G9C U10A U11C C13A, the “aptazyme ON/OFF ratio” value stood at 1.09.

As to U7A G9C U10G U11A C12A C13A, the “aptazyme ON/OFF ratio” value worked out at 1.07.

U7A G9U U10C U11G C12G C13U: the “aptazyme ON/OFF ratio” value worked out at 1.11.

In the case of U7C U8A G9A U10G U11C C13G, the “aptazyme ON/OFF ratio” value amounted to 1.05.

For U8A G9A U10C U11A C12A C13U, the “aptazyme ON/OFF ratio” value amounted to 1.17.

As to U7C U8C C12G, the “aptazyme ON/OFF ratio” value was found to be 1.18.

U7C U8G G9A C13G: the “aptazyme ON/OFF ratio” value came to 1.05.

Regarding U8A U10A U11C C12U C13U, the “aptazyme ON/OFF ratio” value was 1.06.

Consider U7G U8G U10G U11C C13G, for which the “aptazyme ON/OFF ratio” value is 1.29.

For U7C U8G G9C U10G, the “aptazyme ON/OFF ratio” value turned out to be 1.47.

In the case of U7C U8G U10G U11C C13G, the “aptazyme ON/OFF ratio” value is 1.2.

(Values after the RNAGym collection of RNA variant scans (doi:10.1021/acssynbio.7b00057).)
